From US20250207119A1

Assays:
[1] = target: ADAM17 from R & D Systems (UniProt P78536); assay: cell-based or functional assay
[2] = target: Human ADAM10 from R & D Systems (human) (UniProt O14672); assay: cell-based or functional assay
Chain of Human ADAM10 from R & D Systems (human) (O14672 214-672 limits assumed): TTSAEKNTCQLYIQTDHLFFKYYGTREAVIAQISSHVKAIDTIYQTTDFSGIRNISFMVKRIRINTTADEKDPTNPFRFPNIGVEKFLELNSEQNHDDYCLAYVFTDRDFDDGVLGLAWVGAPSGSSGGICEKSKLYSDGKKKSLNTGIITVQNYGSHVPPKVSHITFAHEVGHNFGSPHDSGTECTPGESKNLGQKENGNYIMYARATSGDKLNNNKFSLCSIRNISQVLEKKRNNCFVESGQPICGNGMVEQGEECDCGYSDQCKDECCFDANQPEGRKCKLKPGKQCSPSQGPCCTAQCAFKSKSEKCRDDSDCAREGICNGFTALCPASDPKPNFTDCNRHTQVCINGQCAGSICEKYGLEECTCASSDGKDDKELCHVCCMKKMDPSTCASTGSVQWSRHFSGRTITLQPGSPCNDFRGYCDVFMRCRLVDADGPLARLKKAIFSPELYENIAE

Chain of ADAM17 from R & D Systems (P78536 215-671 limits assumed): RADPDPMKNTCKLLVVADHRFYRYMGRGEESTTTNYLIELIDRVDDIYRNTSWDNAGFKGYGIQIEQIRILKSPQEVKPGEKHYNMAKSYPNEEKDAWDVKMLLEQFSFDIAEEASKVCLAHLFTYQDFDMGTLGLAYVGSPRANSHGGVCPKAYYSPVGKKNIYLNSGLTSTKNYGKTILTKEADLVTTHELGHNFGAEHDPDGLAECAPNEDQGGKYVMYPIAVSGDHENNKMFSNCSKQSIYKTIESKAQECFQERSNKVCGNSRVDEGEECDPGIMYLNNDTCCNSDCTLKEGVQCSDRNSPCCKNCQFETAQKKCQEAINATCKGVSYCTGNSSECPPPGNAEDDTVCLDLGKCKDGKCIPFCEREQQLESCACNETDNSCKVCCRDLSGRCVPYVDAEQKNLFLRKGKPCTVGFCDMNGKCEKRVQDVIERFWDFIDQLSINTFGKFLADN

percent inhibition of ADAM17 activity [1]: 33 % at 6.7 µM | IC50 (nM), inhibition of ADAM10 cleavage of the fluorescent substrate PEPDAB064 [2]: 49 nM
B1: Cys151-pegylated SEQ ID NO: 1 (peptide, not shown: small tags and cut ends)
chain: NPLNKYIRHYEGLSYNVDSLHQKHQRAKRAVSHEDQFLRLDFHAHGRHFNLRMKRDTSLFSDEFKVETSNKVLDYDTSHIYTGHIYGEEGSFSHGSVIDGRFEGFIQTRGGTFYVEPAERYIKDRTLPFHSVIYHEDDINYPHKYGPQGGCADHSVFERMRKYQMTGVEEVTQIPQEEHAANGPELLRK
modifications: 10 kDa maleimide PEG on Cys151
